Results: patent publication US20170158753A1 (INTEGRATED BIOTHERAPEUTICS, published 2017)

T1: EBOV soluble GP (sGP) (Ebola virus (EBOV), UniProt P60170 33-324)
T1 sequence: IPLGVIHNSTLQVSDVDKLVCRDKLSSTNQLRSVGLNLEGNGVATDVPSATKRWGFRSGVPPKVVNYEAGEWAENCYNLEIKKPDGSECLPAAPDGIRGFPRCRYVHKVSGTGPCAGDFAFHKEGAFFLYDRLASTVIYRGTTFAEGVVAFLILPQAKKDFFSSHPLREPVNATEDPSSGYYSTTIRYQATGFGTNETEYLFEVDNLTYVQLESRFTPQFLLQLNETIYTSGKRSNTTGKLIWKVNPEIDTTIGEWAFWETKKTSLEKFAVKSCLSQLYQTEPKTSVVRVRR

T2: glycoprotein from Sudan ebolavirus (SUDV) (Sudan ebolavirus (SUDV), UniProt Q66814 33-650)
T2 sequence: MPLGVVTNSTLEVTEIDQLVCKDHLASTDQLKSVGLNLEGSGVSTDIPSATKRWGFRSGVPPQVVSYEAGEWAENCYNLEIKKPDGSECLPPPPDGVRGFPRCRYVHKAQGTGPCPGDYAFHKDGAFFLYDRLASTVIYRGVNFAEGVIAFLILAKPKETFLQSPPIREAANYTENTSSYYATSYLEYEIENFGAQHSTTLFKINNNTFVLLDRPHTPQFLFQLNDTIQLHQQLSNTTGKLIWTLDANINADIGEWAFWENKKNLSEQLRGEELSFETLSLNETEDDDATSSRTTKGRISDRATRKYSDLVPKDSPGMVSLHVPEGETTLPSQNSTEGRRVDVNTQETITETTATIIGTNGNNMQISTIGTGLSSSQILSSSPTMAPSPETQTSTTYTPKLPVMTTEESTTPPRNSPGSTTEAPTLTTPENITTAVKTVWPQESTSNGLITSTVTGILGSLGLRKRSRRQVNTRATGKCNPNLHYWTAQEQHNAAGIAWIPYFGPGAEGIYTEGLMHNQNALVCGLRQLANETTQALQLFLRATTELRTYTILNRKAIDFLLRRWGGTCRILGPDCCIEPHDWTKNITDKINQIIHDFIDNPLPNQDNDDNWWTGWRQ

T3: glycoprotein from Marburg virus (MARV; Musoke isolate) (Marburg virus (MARV; Musoke isolate), UniProt P35253 19-648)
T3 sequence: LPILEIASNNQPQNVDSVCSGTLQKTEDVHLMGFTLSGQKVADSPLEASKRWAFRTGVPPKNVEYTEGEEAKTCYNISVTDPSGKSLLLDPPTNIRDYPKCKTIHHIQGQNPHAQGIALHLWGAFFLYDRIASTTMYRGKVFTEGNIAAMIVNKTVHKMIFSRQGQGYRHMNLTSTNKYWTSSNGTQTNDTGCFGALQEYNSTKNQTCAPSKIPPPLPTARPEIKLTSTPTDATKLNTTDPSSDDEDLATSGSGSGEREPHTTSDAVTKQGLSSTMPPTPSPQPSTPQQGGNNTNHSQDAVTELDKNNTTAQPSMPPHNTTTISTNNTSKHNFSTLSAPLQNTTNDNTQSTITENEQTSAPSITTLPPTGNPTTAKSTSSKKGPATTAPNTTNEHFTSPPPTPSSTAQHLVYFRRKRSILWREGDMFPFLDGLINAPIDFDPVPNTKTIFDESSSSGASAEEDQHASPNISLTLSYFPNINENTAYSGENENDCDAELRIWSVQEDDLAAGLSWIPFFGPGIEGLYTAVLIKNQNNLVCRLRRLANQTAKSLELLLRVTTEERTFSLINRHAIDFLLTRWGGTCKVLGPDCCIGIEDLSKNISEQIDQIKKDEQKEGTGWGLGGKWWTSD

T4: glycoprotein from Reston ebolavirus (RESTV) (Reston ebolavirus (RESTV), UniProt Q66799 34-651)
T4 sequence: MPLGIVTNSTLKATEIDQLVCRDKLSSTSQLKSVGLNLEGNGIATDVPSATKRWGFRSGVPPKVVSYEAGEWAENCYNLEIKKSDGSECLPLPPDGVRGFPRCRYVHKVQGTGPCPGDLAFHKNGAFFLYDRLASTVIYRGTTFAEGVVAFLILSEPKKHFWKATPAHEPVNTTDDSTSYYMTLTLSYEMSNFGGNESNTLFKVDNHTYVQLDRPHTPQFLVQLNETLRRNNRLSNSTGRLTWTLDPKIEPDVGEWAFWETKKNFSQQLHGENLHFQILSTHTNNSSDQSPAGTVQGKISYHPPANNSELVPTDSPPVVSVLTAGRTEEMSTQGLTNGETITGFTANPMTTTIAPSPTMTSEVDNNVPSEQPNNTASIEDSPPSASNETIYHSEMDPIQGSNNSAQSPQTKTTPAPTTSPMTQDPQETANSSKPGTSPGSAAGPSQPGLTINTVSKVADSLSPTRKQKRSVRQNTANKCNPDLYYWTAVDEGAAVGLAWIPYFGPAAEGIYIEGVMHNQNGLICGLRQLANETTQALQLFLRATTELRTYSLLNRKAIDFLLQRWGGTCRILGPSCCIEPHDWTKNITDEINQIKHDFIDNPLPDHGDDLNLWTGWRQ


Experiments:
EBOV soluble GP (sGP) = target: T1, EBOV soluble GP (sGP); assay: ELISA on EBOV soluble GP (sGP), OD650 against nM mAb
[1] = target: T2, glycoprotein from Sudan ebolavirus …; assay: summary of reactivity by any method (ELISA, Western blot, BIACORE)
[2] = target: T3, glycoprotein from Marburg virus (MARV; …); assay: as above
[3] = target: T4, glycoprotein from Reston ebolavirus …; assay: as above

| Binder | EC50 (EBOV soluble GP (sGP)) [nM] | binding result [1] | binding result [2] | binding result [3] | binding result (EBOV soluble GP (sGP)) |
| --- | --- | --- | --- | --- | --- |
| m17C6 (antibody, V domains shown) VH: EVQLQESGPGLVQPSQSLSITCTVSGFSLTSYGVHWVRQSPGKGLEWLGVIWSGGSTDYNAAFISRLSISKDNSKSQVFFKMNSLQADDTAIYYCARNWFDYDNYYSMDYWGQGTSVTVSS VL: DIQMTQTTSSLSASLGDRVTISCRASQDISNYLNWYQQKPDGTVKLLIYYTSRLHSGVPSRFSGSGSGTDFSLTISNQEPEDIATYYCQQYSNLPWTFGGGTKLEIKR | 0.4 | binds | – | – | – |
| m2D8 (antibody, V domains shown) VH: EVQLQESGGELVRPGTSVKISCKASGYTFTNFWLGWIKERPGHGLEWIGDIYPGGHYTNYNENFKGKATLTADTSSNTAYMQVSSLTSEDSAVYFCFTQYYDMDYWGQGTSVTVSS VL: not shown | – | binds | binds | – | – |
| m8C4 (antibody, V domains shown) VH: EVQLQESGPELKKPGETVKISCKASGYTFTTYGMSWVKQAPGKGLKWMGRINTYSGVPTYADEFKGRFAFSLENSASTAYLQINNLKNEDTATYFCARGDGGHWFANWGQGTLVTVSA VL: DIQMTQSPSSLSASLGGKVTITCKASQDINKNIAWYQHKPGKGPRLLIWYKSALQPGIPSRFSGSGSGRDYSFSISNLEPEDIATYSCLQYDNLPPTFGGGTKLEIKR | 10.3 | – | no binding | no binding | – |
| m16G8 (antibody, V domains shown) VH: EVQLQESGPGLVKPGASVKISCKASGYSFTGYYMNWVKQSPEKSLEWIGEINPSTGGTTYNQKFKAKATLTVDKSSSTAYMQLKSLTSEDSAVYYCVRYSHYYGSGSWYFDVWGTGTTVTVSS VL: DIQMTQSPASLSASVGETVTITCRASENIYSNLAWYQQKQGKSPQLLVNAATNLADGVPSRFSGSGSGTQFSLKINSLQPEDFGSYYCQHFYVTPYMFGSGTKLEIKR | – | binds | no binding | – | no binding (tested: about 67 nM (last point; axis to 100 nM)) |
| m2E4 (antibody, V domains shown) VH: EVQLQESGPELVKPGASVKISCKASGYSFTGYYMNWVKQSPEKSLEWIGEINPSTGGTTYNQKFKAKATLTVDKSSSTAYMQLKSLTSEDSAVYYCVRYSHYYGSGSWYFDVWGTGTTVTVSS VL: DIQMTQSPASLSASVGETVTITCRASENIYSNLAWYQQKQGKSPQLLVNAATNLADGVPSRFSGSGSGTQFSLKINSLQPEDFGSYYCQHFYVTPYTFGSGTKLEIKR | – | – | no binding | – | – |
| m21B2 (antibody, V domains shown) VH: EVQLQESGAELVRPGASVTLSCKTSGYTFTDYEMHWVKQTPVHGLEWIGAIDPETGGTAYNQKFKGKATLTADKSSSTAYMELSRLTSEDSAVYYCTGNYATDYWGQGTSVTVSS VL: DIVMSQSPSSLAVSAGEKVTMSCKSSQSLFNSRSRKNYLAWYQLKPGQSPKLLIYWASTRESGVPDRFTGSGSGTDFTLTISSVQAEDLAVYYCKQSNYLWTFGGGTKLEIKR | – | – | binds | – | – |
